Earlier results as cited in PMC13507575.

Biological target: IL-1β (Homo sapiens) (UniProt P01584)

Substance: canakinumab
- Kd: 4.1 nM
